Assay results taken from IntAct's records for PubMed 28712572.

These substances were tested against gbrap_human GABARAP (UniProt O95166).
gbrap_human GABARAP, sequence (O95166 whole entry): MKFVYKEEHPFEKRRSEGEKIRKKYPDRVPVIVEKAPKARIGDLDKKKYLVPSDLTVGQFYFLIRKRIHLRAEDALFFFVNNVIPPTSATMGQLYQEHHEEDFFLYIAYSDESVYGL
With “Pericentriolar material 1 protein (Homo sapiens), Q15154 D1959A” the “effect of a mutation on the interaction” value was “with no effect”. With “Pericentriolar material 1 protein (Homo sapiens), Q15154 D1959C” the “effect of a mutation on the interaction” value was “with no effect”. In the case of “Pericentriolar material 1 protein (Homo sapiens), Q15154 D1959E”, the “effect of a mutation on the interaction” value is reported as “with no effect”. For “Pericentriolar material 1 protein (Homo sapiens), Q15154 D1959F”, the “effect of a mutation on the interaction” value was “with no effect”. For “Pericentriolar material 1 protein (Homo sapiens), Q15154 D1959G”, the “effect of a mutation on the interaction” value was “with no effect”. “Pericentriolar material 1 protein (Homo sapiens), Q15154 D1959H” was tested, and the “effect of a mutation on the interaction” value was “with no effect”. “Pericentriolar material 1 protein (Homo sapiens), Q15154 D1959I” was tested, and the “effect of a mutation on the interaction” value was “with no effect”. In the case of “Pericentriolar material 1 protein (Homo sapiens), Q15154 D1959K”, the “effect of a mutation on the interaction” value is reported as “decreasing interaction strength”. In the case of “Pericentriolar material 1 protein (Homo sapiens), Q15154 D1959L”, the “effect of a mutation on the interaction” value is reported as “with no effect”. For “Pericentriolar material 1 protein (Homo sapiens), Q15154 D1959M”, the “effect of a mutation on the interaction” value was “with no effect”. In the case of “Pericentriolar material 1 protein (Homo sapiens), Q15154 D1959N”, the “effect of a mutation on the interaction” value is reported as “with no effect”. For “Pericentriolar material 1 protein (Homo sapiens), Q15154 D1959P”, the “effect of a mutation on the interaction” value was “with no effect”. With “Pericentriolar material 1 protein (Homo sapiens), Q15154 D1959Q” the “effect of a mutation on the interaction” value was “with no effect”. For “Pericentriolar material 1 protein (Homo sapiens), Q15154 D1959R”, the “effect of a mutation on the interaction” value was “with no effect”. In the case of “Pericentriolar material 1 protein (Homo sapiens), Q15154 D1959S”, the “effect of a mutation on the interaction” value is reported as “with no effect”. In the case of “Pericentriolar material 1 protein (Homo sapiens), Q15154 D1959T”, the “effect of a mutation on the interaction” value is reported as “with no effect”. In the case of “Pericentriolar material 1 protein (Homo sapiens), Q15154 D1959V”, the “effect of a mutation on the interaction” value is reported as “decreasing interaction strength”. In the case of “Pericentriolar material 1 protein (Homo sapiens), Q15154 D1959W”, the “effect of a mutation on the interaction” value is reported as “with no effect”. For “Pericentriolar material 1 protein (Homo sapiens), Q15154 D1959Y”, the “effect of a mutation on the interaction” value was “with no effect”. With “Pericentriolar material 1 protein (Homo sapiens), Q15154 D1962A” the “effect of a mutation on the interaction” value was “with no effect”. With “Pericentriolar material 1 protein (Homo sapiens), Q15154 D1962C” the “effect of a mutation on the interaction” value was “with no effect”. With “Pericentriolar material 1 protein (Homo sapiens), Q15154 D1962E” the “effect of a mutation on the interaction” value was “with no effect”. “Pericentriolar material 1 protein (Homo sapiens), Q15154 D1962F” was tested, and the “effect of a mutation on the interaction” value was “with no effect”. For “Pericentriolar material 1 protein (Homo sapiens), Q15154 D1962G”, the “effect of a mutation on the interaction” value was “with no effect”. In the case of “Pericentriolar material 1 protein (Homo sapiens), Q15154 D1962H”, the “effect of a mutation on the interaction” value is reported as “decreasing interaction strength”. In the case of “Pericentriolar material 1 protein (Homo sapiens), Q15154 D1962I”, the “effect of a mutation on the interaction” value is reported as “disrupting interaction strength”. “Pericentriolar material 1 protein (Homo sapiens), Q15154 D1962K” was tested, and the “effect of a mutation on the interaction” value was “disrupting interaction strength”. For “Pericentriolar material 1 protein (Homo sapiens), Q15154 D1962L”, the “effect of a mutation on the interaction” value was “disrupting interaction strength”. In the case of “Pericentriolar material 1 protein (Homo sapiens), Q15154 D1962M”, the “effect of a mutation on the interaction” value is reported as “decreasing interaction strength”. With “Pericentriolar material 1 protein (Homo sapiens), Q15154 D1962N” the “effect of a mutation on the interaction” value was “decreasing interaction strength”. For “Pericentriolar material 1 protein (Homo sapiens), Q15154 D1962P”, the “effect of a mutation on the interaction” value was “disrupting interaction strength”. In the case of “Pericentriolar material 1 protein (Homo sapiens), Q15154 D1962Q”, the “effect of a mutation on the interaction” value is reported as “decreasing interaction strength”. With “Pericentriolar material 1 protein (Homo sapiens), Q15154 D1962R” the “effect of a mutation on the interaction” value was “decreasing interaction strength”. In the case of “Pericentriolar material 1 protein (Homo sapiens), Q15154 D1962S”, the “effect of a mutation on the interaction” value is reported as “with no effect”. With “Pericentriolar material 1 protein (Homo sapiens), Q15154 D1962T” the “effect of a mutation on the interaction” value was “with no effect”. “Pericentriolar material 1 protein (Homo sapiens), Q15154 D1962V” was tested, and the “effect of a mutation on the interaction” value was “disrupting interaction strength”. In the case of “Pericentriolar material 1 protein (Homo sapiens), Q15154 D1962W”, the “effect of a mutation on the interaction” value is reported as “with no effect”. With “Pericentriolar material 1 protein (Homo sapiens), Q15154 D1962Y” the “effect of a mutation on the interaction” value was “disrupting interaction strength”. With “Pericentriolar material 1 protein (Homo sapiens), Q15154 D1968A” the “effect of a mutation on the interaction” value was “with no effect”. For “Pericentriolar material 1 protein (Homo sapiens), Q15154 D1968C”, the “effect of a mutation on the interaction” value was “with no effect”. “Pericentriolar material 1 protein (Homo sapiens), Q15154 D1968E” was tested, and the “effect of a mutation on the interaction” value was “with no effect”. “Pericentriolar material 1 protein (Homo sapiens), Q15154 D1968F” was tested, and the “effect of a mutation on the interaction” value was “with no effect”. In the case of “Pericentriolar material 1 protein (Homo sapiens), Q15154 D1968G”, the “effect of a mutation on the interaction” value is reported as “with no effect”. For “Pericentriolar material 1 protein (Homo sapiens), Q15154 D1968H”, the “effect of a mutation on the interaction” value was “with no effect”. “Pericentriolar material 1 protein (Homo sapiens), Q15154 D1968I” was tested, and the “effect of a mutation on the interaction” value was “with no effect”. With “Pericentriolar material 1 protein (Homo sapiens), Q15154 D1968K” the “effect of a mutation on the interaction” value was “with no effect”. “Pericentriolar material 1 protein (Homo sapiens), Q15154 D1968L” was tested, and the “effect of a mutation on the interaction” value was “with no effect”. With “Pericentriolar material 1 protein (Homo sapiens), Q15154 D1968M” the “effect of a mutation on the interaction” value was “with no effect”. In the case of “Pericentriolar material 1 protein (Homo sapiens), Q15154 D1968N”, the “effect of a mutation on the interaction” value is reported as “with no effect”. For “Pericentriolar material 1 protein (Homo sapiens), Q15154 D1968P”, the “effect of a mutation on the interaction” value was “with no effect”. With “Pericentriolar material 1 protein (Homo sapiens), Q15154 D1968Q” the “effect of a mutation on the interaction” value was “with no effect”. For “Pericentriolar material 1 protein (Homo sapiens), Q15154 D1968R”, the “effect of a mutation on the interaction” value was “with no effect”. For “Pericentriolar material 1 protein (Homo sapiens), Q15154 D1968S”, the “effect of a mutation on the interaction” value was “with no effect”. “Pericentriolar material 1 protein (Homo sapiens), Q15154 D1968T” was tested, and the “effect of a mutation on the interaction” value was “with no effect”. For “Pericentriolar material 1 protein (Homo sapiens), Q15154 D1968V”, the “effect of a mutation on the interaction” value was “with no effect”. With “Pericentriolar material 1 protein (Homo sapiens), Q15154 D1968W” the “effect of a mutation on the interaction” value was “with no effect”. For “Pericentriolar material 1 protein (Homo sapiens), Q15154 D1968Y”, the “effect of a mutation on the interaction” value was “with no effect”. In the case of “Pericentriolar material 1 protein (Homo sapiens), Q15154 E1960A”, the “effect of a mutation on the interaction” value is reported as “with no effect”. With “Pericentriolar material 1 protein (Homo sapiens), Q15154 E1960C” the “effect of a mutation on the interaction” value was “with no effect”. “Pericentriolar material 1 protein (Homo sapiens), Q15154 E1960D” was tested, and the “effect of a mutation on the interaction” value was “with no effect”. For “Pericentriolar material 1 protein (Homo sapiens), Q15154 E1960F”, the “effect of a mutation on the interaction” value was “with no effect”. For “Pericentriolar material 1 protein (Homo sapiens), Q15154 E1960G”, the “effect of a mutation on the interaction” value was “with no effect”. For “Pericentriolar material 1 protein (Homo sapiens), Q15154 E1960H”, the “effect of a mutation on the interaction” value was “with no effect”. With “Pericentriolar material 1 protein (Homo sapiens), Q15154 E1960I” the “effect of a mutation on the interaction” value was “with no effect”. In the case of “Pericentriolar material 1 protein (Homo sapiens), Q15154 E1960K”, the “effect of a mutation on the interaction” value is reported as “decreasing interaction strength”. In the case of “Pericentriolar material 1 protein (Homo sapiens), Q15154 E1960L”, the “effect of a mutation on the interaction” value is reported as “with no effect”. “Pericentriolar material 1 protein (Homo sapiens), Q15154 E1960M” was tested, and the “effect of a mutation on the interaction” value was “decreasing interaction strength”. With “Pericentriolar material 1 protein (Homo sapiens), Q15154 E1960N” the “effect of a mutation on the interaction” value was “with no effect”. “Pericentriolar material 1 protein (Homo sapiens), Q15154 E1960P” was tested, and the “effect of a mutation on the interaction” value was “with no effect”.
